# Target: rBac-RelA (human? (hRelA; expressed in Sf9), UniProt Q04206 1-551)
# Assay: fluorescence anisotropy
# rBac-RelA, sequence (Q04206 whole entry): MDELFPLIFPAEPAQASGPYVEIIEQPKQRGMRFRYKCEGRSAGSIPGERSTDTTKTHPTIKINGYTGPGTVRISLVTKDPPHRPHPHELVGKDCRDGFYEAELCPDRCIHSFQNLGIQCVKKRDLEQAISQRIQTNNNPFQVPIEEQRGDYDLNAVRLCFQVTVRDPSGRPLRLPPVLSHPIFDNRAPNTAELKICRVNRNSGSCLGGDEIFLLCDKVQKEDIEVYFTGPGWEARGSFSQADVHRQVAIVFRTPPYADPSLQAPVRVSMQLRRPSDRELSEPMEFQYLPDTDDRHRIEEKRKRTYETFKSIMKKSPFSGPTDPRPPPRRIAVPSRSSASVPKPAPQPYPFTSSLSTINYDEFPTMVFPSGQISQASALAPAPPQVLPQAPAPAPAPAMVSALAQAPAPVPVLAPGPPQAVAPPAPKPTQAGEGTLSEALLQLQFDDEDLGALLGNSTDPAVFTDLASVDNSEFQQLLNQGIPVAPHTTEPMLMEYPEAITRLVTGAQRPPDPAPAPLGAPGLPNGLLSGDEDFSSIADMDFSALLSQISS
binder,measurement,value
ATCGTGGGAAAGTTTCTGGATATTCCCTTGGA (ssDNA) [fluorescein ssDNA negative control containing κB site],binding result,no binding

# Source: paper PMC5993198
